The Human Domainome abundance scans (Beltran et al. 2025)

B1: POU domain, class 2, transcription factor 3, residues 186 to 260; numbered along this chain, Q9UKI9 (parent)
chain: SDLEELEKFAKTFKQRRIKLGFTQGDVGLAMGKLYGNDFSQTTISRFEALNLSFKNMCKLKPLLEKWLNDAESSP

Variants of: B1
Assay: abundance fitness (aPCA) (normalised: wild type 0, dead -1); higher = more abundant; growth selection in yeast, the domain comes from the species named
Details: Homo sapiens

Abundance fitness: each site, then its substitutions
S45: D -0.048; G -0.036; I -0.125; Y -0.099; M -0.037; H -0.097; V -0.077; L -0.125; T -0.036; A 0.013; F -0.253; W -0.138; K 0.021; N 0.004; C 0.022; P -0.04; R -0.024
T42: I 0.135
A30: G -0.288
L29: K 0.042; Q 0.007; M 0.05; G -0.042; C 0.026; R 0.019; E 0.02; V -0.007; P -0.47; W -0.121; D -0.045; T -0.083; Y -0.06; A 0.024; F -0.099; S -0.003; I 0.022; H -0.062
G36: C -0.18; S 0.1
Y35: F -0.182; S 0.01; D -0.016
G32: R 0.29
M57: W -0.27; N -0.167; L -0.021; S -0.02; C -0.166; I -0.305; T -0.25; V -0.202; R -0.608; K -0.396; E -0.814; H -0.811; P -0.8; D -0.451; G -0.172; Q -0.318; A -0.024; F -0.222
N37: H 0.04; G 0.024; I -0.039; T -0.013; M -0.025; W -0.07; C -0.027; E 0.003; F -0.139; R 0.027; A 0.02; V -0.027; Y -0.157; D 0.023
D38: N 0.037
F47: P -1.09; C -0.845; R -1.08; T -0.812; I -0.433; V -0.346; M -0.279; S -0.915; A -0.712; E -0.942; G -0.925; Q -1.22; K -1.15; N -0.932; L -0.098; D -0.985; W -0.27; Y -0.222
D26: R -0.344; V -0.227; G -0.125
G28: T 0.087; R -0.191; C -0.367; Q -0.59; A -0.055
G21: Q -0.493; S -0.504; V -0.683; D -0.373
K55: P -0.155; T -0.003; S 0.011; H -0.132; D 0.037; F -0.031; C -0.033; Q 0.046; N -0.152; M -0.052; L 0.001; V -0.006; Y 0.069; G 0.009; I -0.12; E 0.016; R -0.015; W -0.093
V27: D -0.727
M31: R -0.746; C -0.583
I18: V -0.023; Q 0.086; R -0.057; M 0.004; Y -0.166; P -0.964; N -0.146; T -0.041; S -0.072; W -0.31
L50: A 0.017; C -0.078; Y -0.077; H 0.142; T -0.003; K -0.051; S 0.031; R 0.009; M -0.02; E -0.165; G 0.031; W -0.105; D -0.204; N 0.087; Q -0.055
Q41: W -0.095; P -0.03; F -0.037; K 0.051; D -0.066; C -0.062; R -0.001; A 0.025; Y -0.07; I -0.072; V -0.081; H -0.001; M -0.055; E 0.026; S -0.002; L -0.117; T -0.04; G 0.009
K33: W -0.372; G 0.141; R 0.129
G25: D -0.436; V -0.161; C 0.105
F54: A 0.013; V -0.012; Q -0.025; G -0.05; E 0.018; P -0.041; K 0.014; Y 0.115; R 0.024; W -0.024; H 0.033; L -0.041; I -0.006; T 0.013; C -0.068; D -0.063; S -0.059; N -0.037; M 0.057
R46: K 0.052; M -0.001; Q 0.014; S -0.008; D 0.009; P -0.986; N 0.011; I -0.745; G -0.009; W -0.428; L -0.05; Y -0.097; V -0.542; E 0.035; A 0.015; T -0.181; H -0.038
F22: R -0.274; S -0.282; L 0.065; E -0.412; A 0.146
A49: Q 0.133; S 0.089; T -0.253; P -0.384; H 0.014; F -0.274; R -0.036; K -0.315; L -0.197; M -0.201; V 0.011
N56: M 0.045; W 0.014; D 0.008; P -0.206; L -0.008; Y -0.022; G -0.05; E -0.001; R 0.009; K -0.024; A 0.018; S -0.035; H 0.014; F -0.058; V -0.082; T 0.093; Q 0.046; I -0.034; C -0.016
N51: Q -0.011; I -0.151; C -0.076; W -0.282; E -0.078; H 0.107; G -0.01; V -0.1; L -0.035; T 0.007; M -0.022; K 0.069; Y -0.188; P -0.844; S 0.043; D -0.008
L52: S -0.25; K -0.618; G -0.149; A -0.148; W -0.201; E -0.131; I -0.183; R -0.717; D -0.021; N -0.444; M -0.004; F -0.231; P -0.972; C -0.107
L20: K -0.591
E48: H -1.19; I -1.02; V -1.04; M -0.798; P -0.994; T -1.25; W -1.17; L -0.836; G -1.04; Q -1.16; C -0.871; N -0.871; D -1.11; F -0.708; K -0.705; S -0.912
K19: D 0.131; A -0.321; S 0.11; L 0.228
T23: S 0.026; A -0.157
Q24: A -0.451; S -0.071; W -0.591; C -0.155
S53: V -0.598; R -0.093; G 0.015; Q -0.077; E -0.061; K -0.091; M -0.608; I -0.556; L -0.768; P -0.032; T 0.002; W -0.958; H -0.205; D -0.04; F -0.66; N 0.03
I44: D -1.03; P -0.919; N -1.1; L -0.149; Q -0.985; E -0.794; H -1.02; G -1; Y -0.569; M -0.377; C -0.538; V -0.045; A -0.784; R -0.86
